2 proteins from article PMC8213124, “Chemokines act as phosphatidylserine-bound “find-me” signals in apoptotic cell clearance” (PLoS Biology, 2021) can be followed below.

This data set deals with the molecule itself. The data set can be described thus: cross-linking; 50 ng chemokine in 20 mM HEPES, 30 min at room temperature without or with phospholipid (brain PE, PC, PS or heart CL; 1:8 chemokine:total lipid molar ratio), then 0.25 mM BS3 for 30 min; SDS-PAGE and immunoblot with anti-chemokine antibodies.

B1: CXCL11 (natural protein, human, UniProt O14625 22-94, looked up)
chain: FPMFKRGRCLCIGPGVKAVKVADIEKASIMYPSNNCDKIEVIITLKENKGQRCLNPKSKQARLIIKKVERKNF
notes: human chemokine CXCL11, untagged recombinant protein; source: bought: Peprotech, recombinant, produced in Escherichia coli
For the protein B1, the binding result is given as “binds”.

B2: CXCL9 (natural protein, human, UniProt Q07325 23-125, looked up)
chain: TPVVRKGRCSCISTNQGTIHLQSLKDLKQFAPSPSCEKIEIIATLKNGVQTCLNPDSADVKELIKKWEKQVSQKKKQKNGKKHQKKKVLKVRKSQRSRQKKTT
notes: human chemokine CXCL9, untagged recombinant protein; source: bought: Peprotech, recombinant, produced in Escherichia coli
On to B2, for which the binding result is listed as “binds”.
